{"source": "paper PMC6795519", "biological_target": "PIP3-dependent Rac exchanger 1 (P-Rex1), residues 38 to 1659 (human) (UniProt Q8TCU6)", "sequence (Q8TCU6 38-1659)": "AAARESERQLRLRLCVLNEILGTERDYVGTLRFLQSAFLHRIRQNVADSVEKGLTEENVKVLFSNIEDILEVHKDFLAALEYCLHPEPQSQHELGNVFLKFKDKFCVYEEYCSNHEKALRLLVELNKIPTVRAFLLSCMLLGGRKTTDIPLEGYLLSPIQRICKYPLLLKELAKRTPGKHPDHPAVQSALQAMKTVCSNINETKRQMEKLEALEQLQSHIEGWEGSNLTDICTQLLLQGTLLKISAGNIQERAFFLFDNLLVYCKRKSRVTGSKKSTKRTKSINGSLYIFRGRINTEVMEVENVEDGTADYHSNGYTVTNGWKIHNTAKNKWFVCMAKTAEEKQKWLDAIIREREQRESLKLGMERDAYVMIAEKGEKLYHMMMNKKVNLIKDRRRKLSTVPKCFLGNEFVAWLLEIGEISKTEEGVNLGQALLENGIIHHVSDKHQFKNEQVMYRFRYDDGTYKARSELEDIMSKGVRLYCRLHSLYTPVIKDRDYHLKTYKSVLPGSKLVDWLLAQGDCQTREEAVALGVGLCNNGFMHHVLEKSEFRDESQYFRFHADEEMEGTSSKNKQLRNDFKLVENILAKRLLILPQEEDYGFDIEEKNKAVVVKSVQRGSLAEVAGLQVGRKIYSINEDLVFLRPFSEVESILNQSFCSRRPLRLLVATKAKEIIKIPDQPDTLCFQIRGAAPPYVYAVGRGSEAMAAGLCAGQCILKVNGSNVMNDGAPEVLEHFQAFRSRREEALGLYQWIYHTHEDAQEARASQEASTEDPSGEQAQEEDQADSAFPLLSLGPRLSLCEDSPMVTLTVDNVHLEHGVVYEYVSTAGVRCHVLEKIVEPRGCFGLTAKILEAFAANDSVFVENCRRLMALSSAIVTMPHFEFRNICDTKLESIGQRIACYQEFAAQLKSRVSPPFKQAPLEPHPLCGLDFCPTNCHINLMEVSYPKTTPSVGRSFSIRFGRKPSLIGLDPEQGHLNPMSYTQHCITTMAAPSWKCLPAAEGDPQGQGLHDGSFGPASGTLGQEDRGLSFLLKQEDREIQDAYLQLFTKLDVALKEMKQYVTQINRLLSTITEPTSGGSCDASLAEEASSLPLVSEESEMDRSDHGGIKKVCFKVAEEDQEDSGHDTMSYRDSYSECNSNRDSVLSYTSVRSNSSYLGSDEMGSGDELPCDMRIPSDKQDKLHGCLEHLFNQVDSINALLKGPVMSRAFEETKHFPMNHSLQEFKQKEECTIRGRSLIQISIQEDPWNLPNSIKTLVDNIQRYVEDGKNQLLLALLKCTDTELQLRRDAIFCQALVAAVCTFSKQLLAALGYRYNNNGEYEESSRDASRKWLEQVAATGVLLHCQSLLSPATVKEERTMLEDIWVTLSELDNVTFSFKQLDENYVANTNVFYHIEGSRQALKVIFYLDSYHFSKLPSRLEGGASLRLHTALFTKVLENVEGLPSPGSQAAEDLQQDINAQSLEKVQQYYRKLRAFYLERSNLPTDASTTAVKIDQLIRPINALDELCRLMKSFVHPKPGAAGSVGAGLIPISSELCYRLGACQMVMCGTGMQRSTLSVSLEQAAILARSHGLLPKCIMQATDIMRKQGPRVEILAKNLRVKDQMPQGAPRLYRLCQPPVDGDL"}
{"substance": "Geranylgeranylated human Gβ1γ2 with Gβ W332A (from UniProt P62873 1-340; P59768 1-71) (complex)", "values": [{"measurement": "liposome-based GEF assay, Gβγ dose-response (0.5 μM PIP3): EC50 of activation of P-Rex1 against WT Gβγ; lower efficacy than WT", "result": 10, "unit": "fold"}]}
